Measurements from patent US20240084330A1 (BROAD INSTITUTE, published 2024).

B1: MmMOAP1 (mouse MOAP1 produced in E. coli, tags removed) (other, UniProt Q9ERH6 1-352, looked up)
chain: MTLRLLEDWCRGMDMNPRKALLVAGIPPTCGVADIEEALQAGLAPLGEHRLLGRMFRRDENKNVALIGLTVETGSALVPKEIPAKGGVWRVIFKPPDTDSDFLCRLNEFLKGEGMTMGELTRVLGNRNDPLGLDPGIMIPEIRAPMLAQALNEALKPTLQYLRYKKLSVFSGRDPPGPGEEEFESWMFHTSQVMKTWQVSDVEKRRRLIESLRGPAFEIIRVLKINNPFITVAECLKTLETIFGIIDNPRALQVKYLTTYQKTDEKLSAYVLRLEPLLQKLVQKGAIEKEVVNQARLDQVIAGAVHKSVRRELGLPEGSPAPGLLQLLTLIKDKEAEEEEVLLQAELEGYCT
notes: Cloned from mouse cDNA into a TwinStrep-SUMO backbone; tags cleaved with SUMO protease before size exclusion; also called modulator of apoptosis 1; Pnma4
B2: MmPNMA5 (mouse PNMA5 produced in E. coli, tags removed) (other, UniProt Q5DTT8 1-618, looked up)
chain: MAVALLDDWCKGMDLDPKKAVLIVGIPVQYTEAAINDALKEGLPPLCAYKVIGRMFRREDEAKAVLIELPEVVDYTMMPTHIPAEGGAWEVVVKPRSPDDEFMNKLIYFLRDEGRRIVDVAKALGFSTVPTGKIELKNLDQDKPKGLKSLCNNSTCYKKLKVFSGSPFPGPGEESFETWLEEVTELMQLWQVSEREKKQCLLESLRGSALSIMQALWTSNDSLTVEQCLKALKHIFGNKEDSKVLQFRFLQSSQKPAEKVSDYLLRLEPLLQKAVQQSPLSAHSADSIRLKHVLSQVSMTTGLRGKLSLLDQQGCPPTFLELMKLTRDEEEWESTVVVEEQEQVRRDSSACEAANEVVTQAEDSREVSTQTTGEEMTSVKRRRLLWRHSAGEEGQRKESGFWAESEPDEQKPYVRAQESGNERGAWAVSHPNPKEIEAQDSQEFLPVAGNRDTLTKSWGSPDKGTGDMSVAEGQQGQGKAPNFLLARNDPNKQEQIPHSSVTTKWQDRGECQRLKWGASMITRPQGNPDRSWDTSGSQDGEDGCSELRMPTGTEAAQGVEEPATGLSWAEDTSAWEQARLGRETVPRRGGRRIQPVFRIIYTALGEPHEGSTLESFRE
notes: Cloned from mouse cDNA into a TwinStrep-SUMO backbone; tags cleaved with SUMO protease before size exclusion
B3: MmPNMA3 (mouse PNMA3 produced in E. coli, tags removed) (other, UniProt Q8JZW8 1-466, looked up)
chain: MPLNLLQDWCRGEHLNTQRSMLILGIPEDCSEDEFEETLHEALKHLGRYRIIGRMFRREENAQAFLVELARDFDYALVPREIEGKGGPWEVVVKPPHSDDEFLNRLNHFLEEERRTVSDMNRVLGTHSNHSPTKTTISADFWVWAQTLGAVMQPLLEQMLYRELRVFSGNTISIPGLLAFDSWLEHTTEMLQMWQVPEVEKRRRLMECLRGPALQVVNVLRANNAAITVKECLEALRQVFGSVDNRKIAQLKFCKAYQEPGEKVSSFVVRLETLLQKALEKNAISRKNVNQTRLKRILGGAILSAKLREKLKMLKQRRRPPGFLALVKLFREEEEEWEATRGSERSCYEGLELGPSPSNIGSEERELFVPAFGSVLEERPYQGSRRRRHRRRGQHRKGGVPRDDSQGTRKQNYDTFCYSCGEDGHIRVHCFNPSNRTLVKQKRQAAMEKGNRSWAWEKSHPKPKTK
notes: as for B2

Molecular target: the molecule itself
Test: self-assembly of E. coli-produced protein; size exclusion and electron microscopy

Binding result, binds:
B1, B2, B3
